Patent publication US7537764
pKd: −log10 of the molar value.

Key:
[1] = target: WNV-like particles with E protein mutation A365V (West Nile virus strain 382-99) (UniProt Q9Q6P4)
[2] = target: West Nile virus strain USA99b (strain 385-99), whole virus (West Nile virus strain 385-99 (USA99b)); experiment: ELISA on irradiated WNV; antibody diluted 1:5
[3] = target: West Nile virus strain USA99b (strain 385-99), whole virus (West Nile virus strain 385-99 (USA99b)); experiment: ELISA on irradiated WNV; antibody diluted 1:25
[4] = target: West Nile virus strain USA99b (strain 385-99), whole virus (West Nile virus strain 385-99 (USA99b)); experiment: ELISA on irradiated WNV; antibody diluted 1:125
[5] = target: West Nile virus strain USA99b (strain 385-99), whole virus (West Nile virus strain 385-99 (USA99b)); experiment: SPR (BIAcore3000), WNV captured via immobilized CR4283, IgG injected, bivalent analyte model, average of duplicates
[6] = target: West Nile virus strain USA99b (strain 385-99), whole virus (West Nile virus strain 385-99 (USA99b)); experiment: ELISA on irradiated WNV; antibody at 20.000 µg/ml

Row | Substance | fold binding against wild-type VLP [1] | OD 492 nm [2] | OD 492 nm [3] | OD 492 nm [4] | pKd [5] | OD 492 nm [6]
1 | WNV-E protein specific murine antibody 7H2 | 2 fold | 2.09 OD | 2.12 OD | 2.13 OD | 9.49 | 
2 | anti-rabies virus antibody (negative control) |  | 0.062 OD | 0.056 OD | 0.046 OD |  | 0.051 OD
